This data set concerns the molecule itself. The experiment in a line: cryo-EM structure.

B1: Erwinia ligand-gated ion channel (ELIC), wild type (natural protein)
chain: APADNAADARPVDVSVSIFINKIYGVNTLEQTYKVDGYIVAQWTGKPRKTPGDKPLIVENTQIERWINNGLWVPALEFINVVGSPDTGNKRLMLFPDGRVIYNARFLGSFSNDMDFRLFPFDRQQFVLELEPFSYNNQQLRFSDIQVYTENIDNEEIDEWWIRKASTHISDIRYDHLSSVQPNQNEFSRITVRIDAVRNPSYYLWSFILPLGLIIAASWSVFWLESFSERLQTSFTLMLTVVAYAFYTSNILPRLPYTTVIDQMIIAGYGSIFAAILLIIFAHHRQAMGVEDDLLIQRCRLAFPLGFLAIGCVLVIRGITL
With B1, the “stoichiometry N” value is 5.

The values are drawn from article doi:10.1101/2022.11.20.517256 (bioRxiv, 2022).
